Source: paper PMC10790359, “System for Self-excited Targeted Photodynamic Therapy Based on the Multimodal Protein DARP-NanoLuc-SOPP3” (Acta Naturae, 2023)

Biological target: T1, HER2 (human epidermal growth factor receptor type II) (human (endogenous in SKOV3.ip1), UniProt P04626 23-1255)
T1 construct: HER2, human epidermal growth factor receptor type II, on the surface of human ovarian adenocarcinoma SKOV3.ip1 / SKOV3.ip1-Kat cells; also called HER2 receptor; HER2 tumor marker; source: endogenous, on SKOV3.ip1 and SKOV3.ip1-Kat cells (HER2 overexpression)
Assay: flow cytometry on cells; cells incubated with 300 nM DARP-NanoLuc-SOPP3-AF488 conjugate in complete growth medium for 10 min at 37°C, washed thrice with phosphate-buffered saline; HER2-positive SKOV3.ip1-Kat cells; control: unlabelled cells
Conditions: one partner purified

B1: DARP-NanoLuc-SOPP3 (designed binder)
chain: MDLGKKLLEAARAGQDDEVRILMANGADVNAHDFYGITPLHLAANFGHLEIVEVLLKHGADVNAFDYDNTPLHLAADAGHLEIVEVLLKYGADVNASDRDGHTPLHLAAREGHLEIVEVLLKNGADVNAQDKFGKTAFDISIDNGNEDLAEILQEFPKPSTPPGSSGGAMVFTLEDFVGDWRQTAGYNLDQVLEQGGVSSLFQNLGVSVTPIQRIVLSGENGLKIDIHVIIPYEGLSGDQMGQIEKIFKVVYPVDDHHFKVILHYGTLVIDGVTPNMIDYFGRPYEGIAVFDGKKITVTGTLWNGNKIIDERLINPDGSLLFRVTINGVTGWRLCERILAGGGGSGSEKSFVITDPRLPDNPIIFASDGFLELTEYSREEILGRNGRFLQGPETDQATVQKIRDAIRDQREITVQLINYTKSGKKFLNLLNLQPIRDQKGELQAFIGVQVDGKLAAALE
modifications: conjugated with N-hydroxysuccinimide esters of dyes (AF488 or Cy5.5) for flow cytometry and confocal microscopy; legends and results call the green conjugate FITC; labelled residues not stated
notes: DARPin_9-29, HER2-specific targeting module; NanoLuc luciferase (engineered), amplified from plasmid pNL1.1.CMV (Promega); SOPP3 phototoxic flavoprotein (a miniSOG analogue, engineered), amplified from pET24-SOPP3; vector-derived residues between SOPP3 and the C-terminal HHHHHH of the printed chain; cytotoxicity assays used the protein without a dye; also called DARPin-NanoLuc-SOPP3; …
B1 was tested, and the “fold shift in the median fluorescence of conjugate-treated cells compared to the control” value was ~100 fold.
